Results on two molecules are retold here after article PMC12444472, “BCI inhibits MKP3 by targeting the kinase-binding domain and disrupting ERK2 interaction” (The Journal of Biological Chemistry, 2025).

Assay [1] concerns the target T1, Full-length human MKP3, MKP3(1-381) (human) (UniProt Q16828).
T1 sequence: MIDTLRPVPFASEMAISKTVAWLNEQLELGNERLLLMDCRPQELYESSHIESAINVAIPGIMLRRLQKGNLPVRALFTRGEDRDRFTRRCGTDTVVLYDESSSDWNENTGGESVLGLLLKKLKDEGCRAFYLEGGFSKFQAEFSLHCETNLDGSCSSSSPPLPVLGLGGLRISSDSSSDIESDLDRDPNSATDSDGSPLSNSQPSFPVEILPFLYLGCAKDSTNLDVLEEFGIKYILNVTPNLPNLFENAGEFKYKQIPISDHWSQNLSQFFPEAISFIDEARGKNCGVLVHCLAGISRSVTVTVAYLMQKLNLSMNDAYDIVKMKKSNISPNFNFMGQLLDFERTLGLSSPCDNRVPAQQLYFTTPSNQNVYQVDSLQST

For another assay, the system named is MKP3. The following applies: basal, without ERK2; cited from earlier work.

In turn, “Phosphorylated ERK2 (bis-pERK2, phosphorylated at T183 and Y185) (from UniProt P63085 1-358) (enzyme)” displayed a time of pERK2 dephosphorylation by MKP3^FL with BCI at a concentration 50 times that of pERK2 in assay [1] greater than 20 fold.
Turning to `O=C1C(SCCO)=C(SCCO)C(=O)c2ccccc21` [NSC95397], the “effect on MKP3's basal activity toward OMFP” value in the assay with MKP3 was “inhibited”.
